Test results: patent US6593099B2, “Regulation of human S-acyl fatty acid synthase thioesterase-like enzyme” (Bayer Aktiengesellschaft, priority 2000, dated 2003)
Values belong to the molecule of their own block, whether it stands above or below them.

Columns and labels:
[1] = molecular target: T1, S-acyl fatty acid synthase thioesterase-like enzyme short (long) polypeptide (coolEST49) (Homo sapiens, UniProt Q9NV23); test: Discontinuous DTNB thioesterase activity / inhibition assay with palmitoyl CoA; assay type: biochemical; details: 1 mM AEBSF
T1 construct: 6xHis (N); made in house; host or cells: E. coli BL21 (DE3), pET-28a
T1 sequence (Q9NV23 whole entry): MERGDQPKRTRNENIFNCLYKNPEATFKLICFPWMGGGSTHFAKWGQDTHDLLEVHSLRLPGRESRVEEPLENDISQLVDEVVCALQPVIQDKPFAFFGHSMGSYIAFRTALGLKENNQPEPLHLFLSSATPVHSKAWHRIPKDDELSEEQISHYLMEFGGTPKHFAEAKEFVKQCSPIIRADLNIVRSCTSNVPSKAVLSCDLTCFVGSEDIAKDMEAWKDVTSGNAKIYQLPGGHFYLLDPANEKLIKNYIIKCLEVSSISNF
Procedure: Activity of both protein peaks was assayed using an optimized discontinuous assay format. Reaction mixture was 100 mM Tris (pH 8.0), 100 nM coolEST49,±0.1 mM palmitoyl CoA in a volume of 100 μL. The mixture was allowed to incubate at room temperature for 3 hours. After incubation, 150 μL of developer mixture (0.42 mM DTNB in 100 mM Tris) was added, and the absorbance at 412 nm was measured using a 96-well plate reader, using samples without palmitoyl CoA as blanks.
Activity of S-acyl fatty acid synthase thioesterase-like enzyme short (long) polypeptide from the anion exchange column was assayed and compared to that of the eluate from the Ni-NTA column step. An attempt was also made at inhibiting S-acyl fatty acid synthase thioesterase-like enzyme short (long) polypeptide with either DEPC (7 mM) or AEBSF (1 mM).

[2] = molecular target: T2, S-acyl fatty acid synthase thioesterase-like enzyme short (long) polypeptide (Homo sapiens, UniProt Q9NV23); test: Continuous DTNB assay, kinetics and substrate searching; details: Batch 1 from baculovirus
T2 sequence (Q9NV23 whole entry): as above
Procedure: (§1) A continuous assay format was used to get kinetic information on this preparation of S-acyl fatty acid synthase thioesterase-like enzyme short (long) polypeptide, using the same conditions as with the discontinuous assay, except with this format, developer was added to enzyme until a flat signal was achieved, then the reaction was started by the addition of substrate. Along with palmitoyl CoA, the other substrates assayed were acetyl CoA, octanoyl CoA, decanoyl CoA, and lauroyl CoA.
(§2) S-acyl fatty acid synthase thioesterase-like enzyme short (long) polypeptide activity was assayed in the continuous format as described.

[3] = molecular target: T2, S-acyl fatty acid synthase thioesterase-like enzyme short (long) polypeptide; test: Comparison of continuous and discontinuous assay format (pre-incubation with DTNB); assay type: biochemical; design: His6; made in house; host or cells: Sf9 insect cells, baculovirus; details: DTNB at the concentrations used in the continuous assay format
Procedure: S-acyl fatty acid synthase thioesterase-like enzyme short (long) polypeptide was incubated in the presence or absence of DTNB, and the A412 was monitored until a baseline was achieved. Substrate (palmitoyl CoA) was then added to each incubation and was incubated for an additional 50 minutes. After this period of time, A412 of each sample was compared to determine whether the pre-incubation of enzyme with DTNB inactivates the enzyme. Enzyme without substrate was used as a blank for the discontinuous assay.

[4] = test system: CCCCCCCC(=O)SCCNC(=O)CCNC(=O)[C@H](O)C(C)(C)COP(=O)(O)OP(=O)(O)OC[C@H]1O[C@@H](n2cnc3c(N)ncnc32)[C@H](O)[C@@H]1OP(=O)(O)O; test: purified protein, by the assay type; details: other: Batch 1 from baculovirus, continuous assay
Procedure: as §1, §2

[5] = test system: CCCCCCCCCC(=O)SCCNC(=O)CCNC(=O)[C@H](O)C(C)(C)COP(=O)(O)OP(=O)(O)OC[C@H]1O[C@@H](n2cnc3c(N)ncnc32)[C@H](O)[C@@H]1OP(=O)(O)O; test: purified protein, by the assay type; details: other: Batch 1 from baculovirus, continuous assay
Procedure: as §1, §2

[6] = test system: CCCCCCCCCCCCCCCC(=O)SCCNC(=O)CCNC(=O)[C@H](O)C(C)(C)COP(=O)(O)OP(=O)(O)OC[C@H]1O[C@@H](n2cnc3c(N)ncnc32)[C@H](O)[C@@H]1OP(=O)(O)O; test: purified protein, by the assay type; details: continuous assay
Procedure: as §1, §2

[7] = test system: CCCCCCCCCCCC(=O)SCCNC(=O)CCNC(=O)[C@H](O)C(C)(C)COP(=O)(O)OP(=O)(O)OC[C@H]1O[C@@H](n2cnc3c(N)ncnc32)[C@H](O)[C@@H]1OP(=O)(O)O; test: purified protein, by the assay type; details: other: Batch 1 from baculovirus, continuous assay
Procedure: as §1, §2

[8] = other: Batch 1 from baculovirus

Molecule: Cl.NCCc1ccc(S(=O)(=O)F)cc1 [AEBSF, 4-(2-Aminoethyl)Benzenesulfonyl Fluoride Hydrochloride]
Inhibition of S-acyl fatty acid synthase thioesterase-like enzyme short (long) polypeptide activity [1]: inhibited

Km [2]: immeasurable
kcat ([2]; footnote: 1.0 = 23 mOD/min): immeasurable
Molecule: CC(=O)SCCNC(=O)CCNC(=O)[C@H](O)C(C)(C)COP(=O)(O)OP(=O)(O)OC[C@H]1O[C@@H](n2cnc3c(N)ncnc32)[C@H](O)[C@@H]1OP(=O)(O)O [Acetyl CoA]

Inactivation of the enzyme [3]: 60%
Molecule: O=C(O)c1cc(SSc2ccc([N+](=O)[O-])c(C(=O)O)c2)ccc1[N+](=O)[O-] [DTNB, 5,5′-dithiobis(2-nitrobenzoic acid)]

Molecule: S-acyl fatty acid synthase thioesterase-like enzyme short (long) polypeptide (Homo sapiens)
Km [4]: 12,400 μM
kcat [4]: 0.115 s⁻¹
Km [5]: 856.1 µM
kcat [5]: 0.0467 s⁻¹
Km [6, 8]: 5.1 µM
kcat [6, 8]: 0.0167 s⁻¹
Km ([6]; other: Batch 2 from baculovirus): 2.4 µM
Km [7]: 76.7 µM
kcat [7]: 0.0167 s⁻¹
